# Publication PMC4014986
# Read-outs that look alike come from different tables or passages of the source.
# How the values were obtained:
# [1] = target: Actin filaments (F-actin) from rabbit skeletal muscle (rabbit) (UniProt P68135)
# [2] = target: Actin filaments (F-actin) from rabbit skeletal muscle (rabbit) (UniProt P68135); remark: listed apart in the source
# [3] = target: Actin filaments (F-actin) from rabbit skeletal muscle (rabbit) (UniProt P68135); remark: listed apart in the source
# Myosin 5c subfragment 1 (Myo5c-S1, 1-785 amino acids), sequence (Q9NQX4 1-785): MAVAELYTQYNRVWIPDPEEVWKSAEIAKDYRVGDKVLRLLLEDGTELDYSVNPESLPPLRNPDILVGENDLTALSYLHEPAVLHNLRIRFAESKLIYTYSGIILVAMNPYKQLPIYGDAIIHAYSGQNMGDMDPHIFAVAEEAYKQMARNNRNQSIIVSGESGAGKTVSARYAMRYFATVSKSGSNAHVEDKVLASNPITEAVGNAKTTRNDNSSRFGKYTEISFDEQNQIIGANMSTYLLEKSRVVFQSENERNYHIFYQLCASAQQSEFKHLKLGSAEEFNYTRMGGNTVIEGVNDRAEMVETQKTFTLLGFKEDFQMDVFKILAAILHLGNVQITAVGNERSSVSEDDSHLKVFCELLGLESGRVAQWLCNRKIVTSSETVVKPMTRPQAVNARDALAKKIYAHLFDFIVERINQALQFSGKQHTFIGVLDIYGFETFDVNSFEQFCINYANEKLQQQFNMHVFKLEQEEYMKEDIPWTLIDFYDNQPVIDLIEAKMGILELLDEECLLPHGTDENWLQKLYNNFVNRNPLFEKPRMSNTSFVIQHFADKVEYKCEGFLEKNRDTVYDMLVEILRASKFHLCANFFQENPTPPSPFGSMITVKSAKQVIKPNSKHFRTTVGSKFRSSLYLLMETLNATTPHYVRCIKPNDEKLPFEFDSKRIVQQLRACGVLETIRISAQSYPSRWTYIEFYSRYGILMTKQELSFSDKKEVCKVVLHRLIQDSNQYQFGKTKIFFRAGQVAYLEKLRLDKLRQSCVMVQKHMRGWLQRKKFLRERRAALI
substance,measurement,setting,value
"Myosin 5c subfragment 1 (Myo5c-S1, 1-785 amino acids) (from UniProt Q9NQX4 1-785) (domain or fragment)","half-maximum value (Kact) of the phosphate dissociation rate against F-actin concentration (MDCC-PBP, double-mixing stopped flow)",[1],14.6 µM
same,K (ATPase) of the steady-state actin-activated ATPase (NADH-coupled assay),[2],26 µM
same,K (ATPase) of the steady-state actin-activated ATPase (NADH-coupled assay),[3],35 µM
